Source: patent US20170233485A1 (Biogen, published 2017)
Several values for one entry are separate records, joined by “and”; a condition that tells them apart may be missing. Equal entries are not always repeated. Blank lines part the entries; values can stand above or below the binder they belong to.

Experiments:
[1] = molecular target: T1, human FcγR CD32b-GST fusion protein (human, UniProt P31994 43-217, limits assumed); assay: ALPHAscreen competition: test antibody displaces biotinylated IgG1 from FcγR-GST
T1 construct: FcγR-GST fusion protein on anti-GST acceptor beads; also called FcγRIIB; not shown: GST
T1 sequence (looked up): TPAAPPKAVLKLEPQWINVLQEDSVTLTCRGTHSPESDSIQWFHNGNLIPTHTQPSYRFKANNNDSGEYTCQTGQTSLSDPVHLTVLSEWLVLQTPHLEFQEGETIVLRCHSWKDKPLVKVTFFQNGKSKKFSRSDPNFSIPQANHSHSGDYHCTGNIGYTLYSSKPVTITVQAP
Experimental: (§1) In order to confirm the expected reduced binding profile of Exemplary Anti-CD40 Antibody 1 to human FcγR, relative binding affinities were measured using Amplified Luminescent Proximity Homogeneous Assay (ALPHAscreen) technology from Perkin Elmer. With this technology, binding pairs are immobilized onto “donor” and “acceptor” beads. Upon laser excitation, donor beads release singlet oxygen that reacts with acceptor beads in close proximity (≦200 nm) generating a cascade of events that ultimately results in fluorescence emission at 520-620 nm.
(§2) The chimeric AKH3 antibody constructs with the human IgG1 and aglycosyl IgG4P/G1 Fc regions were included in the FcγR and C1q assays as Fc competent and Fc-effectorless comparators, respectively. The assay was performed in a competitive format in which binding of test antibodies to FcγR disrupts the interaction of biotinylated IgG1 and FcγR-GST fusion protein immobilized on Streptavidin donor beads and anti-GST acceptor beads respectively. The plates were read using an Envision plate reader (Perkin Elmer) and the resulting relative fluorescence units (RFU) were plotted versus the concentration of test IgG as shown in FIG. 26.

[2] = molecular target: T2, human FcγR CD16a V158-GST fusion protein (human, UniProt P08637 17-208, limits assumed); assay: as above
T2 construct: FcγR-GST fusion protein on anti-GST acceptor beads; also called FcγRIIIA; not shown: GST
Experimental: as §1, §2

[3] = molecular target: T3, human FcγR CD64-GST fusion protein (human, UniProt P12314 16-292, limits assumed); assay: as above
T3 construct: FcγR-GST fusion protein on anti-GST acceptor beads; also called FcγRI; not shown: GST
Experimental: as §1, §2

[4] = molecular target: T4, human FcγR CD32a R131-GST fusion protein (human, UniProt P12318 34-217, limits assumed); assay: as above
T4 construct: FcγR-GST fusion protein on anti-GST acceptor beads; also called FcγRIIa; not shown: GST
T4 sequence (looked up): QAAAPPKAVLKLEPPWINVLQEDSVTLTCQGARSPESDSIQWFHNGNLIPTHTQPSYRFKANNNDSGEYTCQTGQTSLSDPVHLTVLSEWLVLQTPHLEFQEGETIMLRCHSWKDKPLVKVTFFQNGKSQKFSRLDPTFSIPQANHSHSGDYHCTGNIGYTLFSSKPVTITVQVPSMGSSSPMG
Experimental: as §1, §2

[5] = molecular target: T5, human C1q (human, UniProt P02745 23-245; P02746 28-253; P02747 29-245); assay: ELISA, titrated antibody coated, human C1q detected
T5 construct: the three subunits are from general knowledge; also called Complement protein C1q
Experimental: It was also determined that Exemplary Anti-CD40 Antibody 1 is not capable of activating complement by testing its binding to C1q. The assay (adapted from Idusogie et al., J. Immunol., 164:4178-84 (2000)) was conducted in an ELISA format where titrations of the test antibodies are coated in the wells and binding of human C1q is detected with chicken IgY anti-human C1q (custom reagent from Ayes Labs) followed by a donkey F(ab′) 2 anti-chicken IgY HRP conjugate.

[6] = molecular target: T6, human CD40 H78Q, full length, on 293E cells (human, UniProt P25942 20-277); assay: binding to CD40 SNP variants expressed on 293E cells (data not shown)
T6 construct: also called CN916
Excerpt: The prevalence of these SNPs is quite rare, believed to be at or below the 3% range. Exemplary Anti-CD40 Antibody 1 bound to 6 of the CD40 proteins encoded by DNA sequences containing SNPs comparably to WT CD40, but more weakly to H78Q and R90W (reduced plateau) and not quantifiably to C77F (data not shown).

[7] = molecular target: T7, mouse CD40 (cell surface) (mouse, UniProt P27512 20-289); assay: flow cytometry on 293E transfected cells
T7 construct: whole, on cells; also called murine CD40
T7 sequence (looked up): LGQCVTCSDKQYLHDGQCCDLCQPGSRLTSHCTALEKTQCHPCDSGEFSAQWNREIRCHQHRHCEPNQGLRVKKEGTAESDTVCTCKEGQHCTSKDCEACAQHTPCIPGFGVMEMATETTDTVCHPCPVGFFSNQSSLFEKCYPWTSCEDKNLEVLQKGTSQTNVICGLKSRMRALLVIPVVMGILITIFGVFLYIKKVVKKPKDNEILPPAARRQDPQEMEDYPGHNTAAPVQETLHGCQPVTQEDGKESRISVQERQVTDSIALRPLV

[8] = molecular target: T8, human CD40 (cell surface) (human, UniProt P25942 20-277); assay: FACS, A647-conjugated mAb on primary B cells in human whole blood
T8 construct: Genbank NP_001241; also called WT CD40

[9] = molecular target: T8, human CD40 (cell surface); assay: cell-based or functional assay

T8 sequence (P25942 20-277 limits assumed): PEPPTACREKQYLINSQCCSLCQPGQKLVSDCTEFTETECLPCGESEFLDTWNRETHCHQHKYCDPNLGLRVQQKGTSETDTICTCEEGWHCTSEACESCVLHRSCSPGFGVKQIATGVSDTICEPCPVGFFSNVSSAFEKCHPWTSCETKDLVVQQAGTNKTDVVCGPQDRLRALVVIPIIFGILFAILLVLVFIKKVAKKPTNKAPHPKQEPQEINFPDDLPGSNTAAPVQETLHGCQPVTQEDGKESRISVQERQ
T5 sequence (P02745 23-245 limits assumed, chain 1 of 3): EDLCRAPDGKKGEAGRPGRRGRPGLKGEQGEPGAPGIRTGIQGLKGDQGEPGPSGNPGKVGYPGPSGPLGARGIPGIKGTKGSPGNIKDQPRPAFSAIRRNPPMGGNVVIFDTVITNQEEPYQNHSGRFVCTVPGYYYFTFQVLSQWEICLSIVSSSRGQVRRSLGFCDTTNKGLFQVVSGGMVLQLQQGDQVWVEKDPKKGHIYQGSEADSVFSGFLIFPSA
T5 sequence (P02746 28-253 limits assumed, chain 2 of 3): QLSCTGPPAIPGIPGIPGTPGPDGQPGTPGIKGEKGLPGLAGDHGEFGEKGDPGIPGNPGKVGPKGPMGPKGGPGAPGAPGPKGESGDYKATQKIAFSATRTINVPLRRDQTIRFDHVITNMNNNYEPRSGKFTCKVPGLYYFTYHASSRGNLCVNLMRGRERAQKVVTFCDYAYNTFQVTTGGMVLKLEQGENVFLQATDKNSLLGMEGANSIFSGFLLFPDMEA
T5 sequence (P02747 29-245 limits assumed, chain 3 of 3): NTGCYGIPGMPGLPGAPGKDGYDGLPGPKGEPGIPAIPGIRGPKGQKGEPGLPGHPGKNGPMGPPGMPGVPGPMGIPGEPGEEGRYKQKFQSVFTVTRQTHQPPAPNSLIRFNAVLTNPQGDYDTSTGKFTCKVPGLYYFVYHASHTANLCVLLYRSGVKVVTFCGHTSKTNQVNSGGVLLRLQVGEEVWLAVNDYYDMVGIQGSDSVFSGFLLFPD
T6 sequence (P25942 20-277 H78Q limits assumed): as the sequence (P25942 20-277 limits assumed) above, with H59Q counted along it
T3 sequence (P12314 16-292 limits assumed): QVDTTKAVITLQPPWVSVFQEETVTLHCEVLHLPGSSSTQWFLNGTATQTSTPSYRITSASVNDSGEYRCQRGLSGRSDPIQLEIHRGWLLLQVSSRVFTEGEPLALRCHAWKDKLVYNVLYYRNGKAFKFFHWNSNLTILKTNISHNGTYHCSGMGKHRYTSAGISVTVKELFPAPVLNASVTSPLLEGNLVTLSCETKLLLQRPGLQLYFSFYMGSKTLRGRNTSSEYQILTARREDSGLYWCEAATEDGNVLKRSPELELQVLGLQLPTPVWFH
T2 sequence (P08637 17-208 F176V limits assumed): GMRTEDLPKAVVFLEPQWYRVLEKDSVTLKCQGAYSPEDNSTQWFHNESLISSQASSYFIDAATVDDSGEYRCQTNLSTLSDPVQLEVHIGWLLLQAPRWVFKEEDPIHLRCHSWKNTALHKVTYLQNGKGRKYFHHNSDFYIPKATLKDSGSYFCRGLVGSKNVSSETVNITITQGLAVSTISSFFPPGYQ

fold reduction of binding against WT IgG1 (chAKH3 IgG1) [1]: ~5 fold
fold reduction of binding against WT IgG1 (chAKH3 IgG1) [2]: ~200 fold
fold reduction of binding against WT IgG1 (chAKH3 IgG1) [3]: ~150 fold
fold reduction of binding against WT IgG1 (chAKH3 IgG1) [4]: ~5 fold
binding result [5]: no binding
binding result [6]: binds
binding result [7]: no binding
B1: Exemplary Anti-CD40 Antibody 1 (antibody, human IgG4 S228P, kappa)
heavy: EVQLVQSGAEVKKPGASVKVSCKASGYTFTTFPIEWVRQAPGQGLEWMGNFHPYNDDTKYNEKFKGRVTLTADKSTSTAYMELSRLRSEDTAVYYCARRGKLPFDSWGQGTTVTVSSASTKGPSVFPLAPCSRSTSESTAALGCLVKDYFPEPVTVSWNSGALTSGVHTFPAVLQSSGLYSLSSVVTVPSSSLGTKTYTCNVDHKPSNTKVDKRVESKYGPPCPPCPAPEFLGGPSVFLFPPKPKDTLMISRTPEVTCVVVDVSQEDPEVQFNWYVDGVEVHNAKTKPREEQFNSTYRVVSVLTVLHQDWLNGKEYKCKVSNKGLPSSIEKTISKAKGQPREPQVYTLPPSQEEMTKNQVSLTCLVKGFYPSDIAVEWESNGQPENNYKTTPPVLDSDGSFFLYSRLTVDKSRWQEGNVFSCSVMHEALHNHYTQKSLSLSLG
light: DIQMTQSPSSLSASVGDRVTISCRASQDISNYLNWYQQKPGKVPKLLIYFTSRLRSGVPSRFSGSGSGTDYTLTISSLQPEDVATYYCQQDRKLPWTFGQGTKLEIKRTVAAPSVFIFPPSDEQLKSGTASVVCLLNNFYPREAKVQWKVDNALQSGNSQESVTEQDSKDSTYSLSSTLTLSKADYEKHKVYACEVTHQGLSSPVTKSFNRGEC
modifications: Alexa647 conjugate in some whole-blood assays; N-linked glycan on the heavy chain; neither is carried by the letters.
notes: Humanized IgG4/kappa with S228P (Kabat); also called hAKH3 IgG4P; AKH3 IgG4P; copies: 2 + 2

EC50 [8]: 0.5 nM
IC50, inhibition of CD40L+ Jurkat (D1.1) T cell stimulation of primary human B cells (ICAM-1/CD54 up-regulation, flow cytometry), five normal donors [9]: 11 ng/mL and 0.07 nM
B2: Agly hAKH3 IgG4P/IgG1 (antibody, V domains shown)
VH: EVQLVQSGAEVKKPGASVKVSCKASGYTFTTFPIEWVRQAPGQGLEWMGNFHPYNDDTKYNEKFKGRVTLTADKSTSTAYMELSRLRSEDTAVYYCARRGKLPFDSWGQGTTVTVSS
VL: DIQMTQSPSSLSASVGDRVTISCRASQDISNYLNWYQQKPGKVPKLLIYFTSRLRSGVPSRFSGSGSGTDYTLTISSLQPEDVATYYCQQDRKLPWTFGQGTKLEIK
